Laboratory results: IntAct's records for PubMed 29039417

B1: BBSome complex member BBS1 (Homo sapiens), Q8NFJ9 (parent)
chain: MAAASSSDSDACGAESNEANSKWLDAHYDPMANIHTFSACLALADLHGDGEYKLVVGDLGPGGQQPRLKVLKGPLVMTESPLPALPAAAATFLMEQHEPRTPALALASGPCVYVYKNLRPYFKFSLPQLPPNPLEQDLWNQAKEDRIDPLTLKEMLESIRETAEEPLSIQSLRFLQLELSEMEAFVNQHKSNSIKRQTVITTMTTLKKNLADEDAVSCLVLGTENKELLVLDPEAFTILAKMSLPSVPVFLEVSGQFDVEFRLAAACRNGNIYILRRDSKHPKYCIELSAQPVGLIRVHKVLVVGSTQDSLHGFTHKGKKLWTVQMPAAILTMNLLEQHSRGLQAVMAGLANGEVRIYRDKALLNVIHTPDAVTSLCFGRYGREDNTLIMTTRGGGLIIKILKRTAVFVEGGSEVGPPPAQAMKLNVPRKTRLYVDQTLREREAGTAMHRAFQTDLYLLRLRAARAYLQALESSLSPLSTTAREPLKLHAVVQGLGPTFKLTLHLQNTSTTRPVLGLLVCFLYNEALYSLPRAFFKVPLLVPGLNYPLETFVESLSNKGISDIIKVLVLREGQSAPLLSAHVNMPGSEGLAAA
partner: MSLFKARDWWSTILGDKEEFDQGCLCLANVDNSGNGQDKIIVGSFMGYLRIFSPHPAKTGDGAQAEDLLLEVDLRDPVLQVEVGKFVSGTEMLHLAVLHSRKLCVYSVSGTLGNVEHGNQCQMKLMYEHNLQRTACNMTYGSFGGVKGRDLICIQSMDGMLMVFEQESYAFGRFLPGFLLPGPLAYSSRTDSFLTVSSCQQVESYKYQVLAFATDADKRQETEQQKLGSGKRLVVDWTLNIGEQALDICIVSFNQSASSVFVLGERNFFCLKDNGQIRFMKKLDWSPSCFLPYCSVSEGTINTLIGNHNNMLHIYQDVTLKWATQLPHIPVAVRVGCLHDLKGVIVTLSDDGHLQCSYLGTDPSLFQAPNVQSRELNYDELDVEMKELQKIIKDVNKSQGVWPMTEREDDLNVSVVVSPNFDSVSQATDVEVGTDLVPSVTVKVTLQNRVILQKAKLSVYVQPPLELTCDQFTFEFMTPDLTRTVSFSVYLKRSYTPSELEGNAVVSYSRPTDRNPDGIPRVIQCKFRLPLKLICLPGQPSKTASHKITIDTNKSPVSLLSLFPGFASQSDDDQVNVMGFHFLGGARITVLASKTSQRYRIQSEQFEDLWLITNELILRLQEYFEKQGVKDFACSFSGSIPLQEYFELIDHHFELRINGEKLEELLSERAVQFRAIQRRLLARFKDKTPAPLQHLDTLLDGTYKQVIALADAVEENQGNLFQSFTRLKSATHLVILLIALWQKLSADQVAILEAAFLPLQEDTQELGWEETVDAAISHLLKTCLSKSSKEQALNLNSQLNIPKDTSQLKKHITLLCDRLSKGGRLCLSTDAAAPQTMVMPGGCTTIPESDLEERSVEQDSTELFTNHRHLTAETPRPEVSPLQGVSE

Variants of: B1
Settings: with pthb1_human BBS9, Q3SYG4

Row | effect of a mutation on the interaction | Variant
1 | with no effect | R450K
2 | with no effect | R450E
3 | with no effect | R450A
4 | with no effect | E472A
5 | with no effect | L456A
6 | with no effect | L456K
7 | with no effect | L456E
8 | with no effect | L458E
9 | with no effect | L458A
10 | with no effect | L458K
11 | with no effect | R465E
12 | with no effect | R465A
13 | with no effect | R465K
14 | with no effect | Q469K
15 | with no effect | Q469A
16 | with no effect | Q469E
17 | with no effect | G445A
18 | with no effect | G445E
19 | with no effect | G445K
20 | with no effect | L471K
21 | disrupting interaction strength | L471F
22 | with no effect | L471E
23 | with no effect | L471A

Row | effect of a mutation on the interaction | Variant
24 | with no effect | R462A
25 | with no effect | R462E
26 | with no effect | R462K
27 | with no effect | L439K
28 | with no effect | T454K
29 | with no effect | T454E
30 | with no effect | T454A
31 | with no effect | H449K
32 | with no effect | H449A
33 | with no effect | H449E
34 | with no effect | R460K
35 | with no effect | R460E
36 | with no effect | R460A
37 | with no effect | A466E
38 | with no effect | A466K
39 | with no effect | M448K
40 | with no effect | M448E
41 | with no effect | M448A
42 | with no effect | T446K
43 | with no effect | T446A
44 | with no effect | T446E
45 | with no effect | D455A
46 | with no effect | D455K

Row | effect of a mutation on the interaction | Variant
47 | with no effect | D455E
48 | with no effect | R440K
49 | with no effect | R440E
50 | with no effect | R440A
51 | with no effect | R442E
52 | with no effect | R442K
53 | with no effect | R442A
54 | with no effect | E441A
55 | with no effect | E441K
56 | with no effect | L468E
57 | with no effect | L468A
58 | with no effect | L468K
59 | with no effect | A447E
60 | with no effect | A447K
61 | with no effect | Y457A
62 | with no effect | Y457K
63 | with no effect | Y457E
64 | with no effect | A464E
65 | with no effect | A464K
66 | with no effect | A444K
67 | with no effect | A444E
68 | with no effect | L459E
69 | disrupting interaction strength | L459S

Row | effect of a mutation on the interaction | Variant
70 | with no effect | L459A
71 | with no effect | L459K
72 | disrupting interaction strength | F452C
73 | with no effect | F452E
74 | with no effect | F452A
75 | with no effect | F452K
76 | with no effect | A451K
77 | with no effect | A451E
78 | disrupting interaction strength | A463K
79 | disrupting interaction strength | A463E
80 | with no effect | Y467K
81 | with no effect | Y467E
82 | with no effect | Y467A
83 | with no effect | L461K
84 | with no effect | L461A
85 | with no effect | L461E
86 | with no effect | A470E
87 | with no effect | A470K
88 | with no effect | E443K
89 | with no effect | E443A
90 | with no effect | Q453A
91 | with no effect | Q453E
92 | with no effect | Q453K
